The text below walks through data of patent US6855515.

One may read the kcat/Km as the second-order rate constant that governs catalysis at low substrate concentration.

In series [1] the target is Ku-70, P12956.
The target of series [2] is T1, PMS1, P54277.
T1 chain: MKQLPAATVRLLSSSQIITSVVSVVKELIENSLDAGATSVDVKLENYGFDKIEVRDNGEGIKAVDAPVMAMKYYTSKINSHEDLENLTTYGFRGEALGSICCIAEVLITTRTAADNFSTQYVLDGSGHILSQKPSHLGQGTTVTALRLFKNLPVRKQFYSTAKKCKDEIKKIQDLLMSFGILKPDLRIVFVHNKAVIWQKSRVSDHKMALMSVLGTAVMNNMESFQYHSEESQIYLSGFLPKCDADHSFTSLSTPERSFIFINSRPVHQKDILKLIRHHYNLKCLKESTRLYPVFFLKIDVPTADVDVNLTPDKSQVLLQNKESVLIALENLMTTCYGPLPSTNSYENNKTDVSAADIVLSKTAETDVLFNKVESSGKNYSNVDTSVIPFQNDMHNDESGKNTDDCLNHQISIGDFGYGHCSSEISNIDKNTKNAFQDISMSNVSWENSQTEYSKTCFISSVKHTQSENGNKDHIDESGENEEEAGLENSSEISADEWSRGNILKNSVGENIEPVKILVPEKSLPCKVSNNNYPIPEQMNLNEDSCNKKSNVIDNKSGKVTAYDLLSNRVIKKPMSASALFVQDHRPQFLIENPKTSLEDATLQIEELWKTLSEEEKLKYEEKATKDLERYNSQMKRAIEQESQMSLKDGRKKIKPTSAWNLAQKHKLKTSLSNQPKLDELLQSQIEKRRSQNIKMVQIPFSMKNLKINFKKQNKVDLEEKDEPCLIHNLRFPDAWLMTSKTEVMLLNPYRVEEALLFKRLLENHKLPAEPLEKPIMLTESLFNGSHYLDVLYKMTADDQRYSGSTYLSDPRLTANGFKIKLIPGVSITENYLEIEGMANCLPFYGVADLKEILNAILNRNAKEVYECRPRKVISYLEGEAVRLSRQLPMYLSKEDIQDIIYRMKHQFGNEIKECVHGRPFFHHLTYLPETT

The target of series [3] is T2, SRP-72, O76094.
T2 chain: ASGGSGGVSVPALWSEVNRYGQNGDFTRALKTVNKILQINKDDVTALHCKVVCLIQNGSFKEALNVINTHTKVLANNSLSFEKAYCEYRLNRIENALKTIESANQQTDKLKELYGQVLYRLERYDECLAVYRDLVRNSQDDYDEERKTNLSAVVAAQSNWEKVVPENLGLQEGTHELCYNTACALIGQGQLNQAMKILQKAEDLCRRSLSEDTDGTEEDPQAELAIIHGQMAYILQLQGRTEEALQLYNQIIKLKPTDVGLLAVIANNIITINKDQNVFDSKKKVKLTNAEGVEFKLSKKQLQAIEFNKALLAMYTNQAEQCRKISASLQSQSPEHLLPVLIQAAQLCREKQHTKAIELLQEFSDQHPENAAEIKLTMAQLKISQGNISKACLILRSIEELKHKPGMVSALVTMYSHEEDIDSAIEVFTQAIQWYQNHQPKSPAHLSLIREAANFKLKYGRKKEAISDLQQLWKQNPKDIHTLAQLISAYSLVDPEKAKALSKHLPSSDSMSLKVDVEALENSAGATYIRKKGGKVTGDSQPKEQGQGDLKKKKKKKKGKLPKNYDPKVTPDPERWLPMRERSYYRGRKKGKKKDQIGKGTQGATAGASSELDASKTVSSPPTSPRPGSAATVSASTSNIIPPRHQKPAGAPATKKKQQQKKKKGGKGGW

In series [4] the target is RNA polymerase II large subunit, P24928.
In series [5] the target is Ki-67, P46013.
Series [6] has as its target nuclear mitotic apparatus protein.
For series [7], the target named is T3, PMS2, P54278.
T3 chain: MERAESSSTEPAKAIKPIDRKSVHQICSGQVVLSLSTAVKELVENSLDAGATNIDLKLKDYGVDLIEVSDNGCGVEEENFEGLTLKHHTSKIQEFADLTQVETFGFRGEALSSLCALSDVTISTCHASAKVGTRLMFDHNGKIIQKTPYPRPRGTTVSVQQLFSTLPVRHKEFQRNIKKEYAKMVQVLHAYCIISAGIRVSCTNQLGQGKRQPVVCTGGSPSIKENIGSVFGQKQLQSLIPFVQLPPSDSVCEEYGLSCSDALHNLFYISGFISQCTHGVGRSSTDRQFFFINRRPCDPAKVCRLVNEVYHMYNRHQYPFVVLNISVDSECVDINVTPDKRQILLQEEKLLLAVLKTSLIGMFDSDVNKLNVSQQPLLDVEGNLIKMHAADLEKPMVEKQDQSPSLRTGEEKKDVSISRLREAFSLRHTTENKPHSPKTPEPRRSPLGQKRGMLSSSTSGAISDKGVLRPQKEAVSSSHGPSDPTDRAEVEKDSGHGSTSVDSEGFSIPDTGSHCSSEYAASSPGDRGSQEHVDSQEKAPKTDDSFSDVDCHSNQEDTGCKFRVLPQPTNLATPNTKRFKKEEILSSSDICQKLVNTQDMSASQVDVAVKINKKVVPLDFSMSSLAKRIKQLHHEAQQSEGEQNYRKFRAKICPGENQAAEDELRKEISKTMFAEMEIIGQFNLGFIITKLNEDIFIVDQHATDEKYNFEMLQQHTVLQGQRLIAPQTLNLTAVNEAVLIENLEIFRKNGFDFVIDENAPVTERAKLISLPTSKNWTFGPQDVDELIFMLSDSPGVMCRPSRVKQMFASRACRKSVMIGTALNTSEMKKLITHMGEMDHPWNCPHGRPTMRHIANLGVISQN

Series [8] addresses poly(ADP-ribose) polymerase.
Series [9] has as its target Mi-2.
The target of series [10] is U1-70 kDa, P08621.
For series [11], the target named is T4, Topoisomerase I, P11387.
T4 chain: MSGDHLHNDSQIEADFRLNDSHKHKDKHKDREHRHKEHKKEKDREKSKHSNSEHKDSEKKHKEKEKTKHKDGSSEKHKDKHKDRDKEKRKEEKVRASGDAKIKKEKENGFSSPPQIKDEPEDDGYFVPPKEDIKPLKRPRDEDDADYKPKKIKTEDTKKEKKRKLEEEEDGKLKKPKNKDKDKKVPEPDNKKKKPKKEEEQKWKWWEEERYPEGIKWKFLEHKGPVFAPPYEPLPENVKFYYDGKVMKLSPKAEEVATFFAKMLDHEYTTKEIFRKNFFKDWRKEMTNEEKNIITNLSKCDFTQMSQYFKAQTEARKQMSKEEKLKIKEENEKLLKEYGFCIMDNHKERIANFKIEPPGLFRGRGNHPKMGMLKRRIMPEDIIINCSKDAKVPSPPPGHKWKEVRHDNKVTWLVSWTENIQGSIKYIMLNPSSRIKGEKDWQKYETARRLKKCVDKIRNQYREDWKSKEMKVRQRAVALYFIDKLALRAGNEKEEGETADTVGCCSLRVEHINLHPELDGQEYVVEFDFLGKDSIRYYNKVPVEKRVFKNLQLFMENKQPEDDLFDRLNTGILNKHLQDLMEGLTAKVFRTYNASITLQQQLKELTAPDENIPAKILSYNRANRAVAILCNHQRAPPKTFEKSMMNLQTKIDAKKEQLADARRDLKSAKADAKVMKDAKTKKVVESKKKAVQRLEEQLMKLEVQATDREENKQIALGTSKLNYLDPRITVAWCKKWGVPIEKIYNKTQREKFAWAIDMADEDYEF

In series [12] the target is T5, Ac-DEVD-CHO, N-(N-Ac-Asp-Glu-Val)-3-amino-4-oxobutanoic acid.
T5 chain: DEVD

Sequence of nuclear mitotic apparatus protein (chain, as listed by the source): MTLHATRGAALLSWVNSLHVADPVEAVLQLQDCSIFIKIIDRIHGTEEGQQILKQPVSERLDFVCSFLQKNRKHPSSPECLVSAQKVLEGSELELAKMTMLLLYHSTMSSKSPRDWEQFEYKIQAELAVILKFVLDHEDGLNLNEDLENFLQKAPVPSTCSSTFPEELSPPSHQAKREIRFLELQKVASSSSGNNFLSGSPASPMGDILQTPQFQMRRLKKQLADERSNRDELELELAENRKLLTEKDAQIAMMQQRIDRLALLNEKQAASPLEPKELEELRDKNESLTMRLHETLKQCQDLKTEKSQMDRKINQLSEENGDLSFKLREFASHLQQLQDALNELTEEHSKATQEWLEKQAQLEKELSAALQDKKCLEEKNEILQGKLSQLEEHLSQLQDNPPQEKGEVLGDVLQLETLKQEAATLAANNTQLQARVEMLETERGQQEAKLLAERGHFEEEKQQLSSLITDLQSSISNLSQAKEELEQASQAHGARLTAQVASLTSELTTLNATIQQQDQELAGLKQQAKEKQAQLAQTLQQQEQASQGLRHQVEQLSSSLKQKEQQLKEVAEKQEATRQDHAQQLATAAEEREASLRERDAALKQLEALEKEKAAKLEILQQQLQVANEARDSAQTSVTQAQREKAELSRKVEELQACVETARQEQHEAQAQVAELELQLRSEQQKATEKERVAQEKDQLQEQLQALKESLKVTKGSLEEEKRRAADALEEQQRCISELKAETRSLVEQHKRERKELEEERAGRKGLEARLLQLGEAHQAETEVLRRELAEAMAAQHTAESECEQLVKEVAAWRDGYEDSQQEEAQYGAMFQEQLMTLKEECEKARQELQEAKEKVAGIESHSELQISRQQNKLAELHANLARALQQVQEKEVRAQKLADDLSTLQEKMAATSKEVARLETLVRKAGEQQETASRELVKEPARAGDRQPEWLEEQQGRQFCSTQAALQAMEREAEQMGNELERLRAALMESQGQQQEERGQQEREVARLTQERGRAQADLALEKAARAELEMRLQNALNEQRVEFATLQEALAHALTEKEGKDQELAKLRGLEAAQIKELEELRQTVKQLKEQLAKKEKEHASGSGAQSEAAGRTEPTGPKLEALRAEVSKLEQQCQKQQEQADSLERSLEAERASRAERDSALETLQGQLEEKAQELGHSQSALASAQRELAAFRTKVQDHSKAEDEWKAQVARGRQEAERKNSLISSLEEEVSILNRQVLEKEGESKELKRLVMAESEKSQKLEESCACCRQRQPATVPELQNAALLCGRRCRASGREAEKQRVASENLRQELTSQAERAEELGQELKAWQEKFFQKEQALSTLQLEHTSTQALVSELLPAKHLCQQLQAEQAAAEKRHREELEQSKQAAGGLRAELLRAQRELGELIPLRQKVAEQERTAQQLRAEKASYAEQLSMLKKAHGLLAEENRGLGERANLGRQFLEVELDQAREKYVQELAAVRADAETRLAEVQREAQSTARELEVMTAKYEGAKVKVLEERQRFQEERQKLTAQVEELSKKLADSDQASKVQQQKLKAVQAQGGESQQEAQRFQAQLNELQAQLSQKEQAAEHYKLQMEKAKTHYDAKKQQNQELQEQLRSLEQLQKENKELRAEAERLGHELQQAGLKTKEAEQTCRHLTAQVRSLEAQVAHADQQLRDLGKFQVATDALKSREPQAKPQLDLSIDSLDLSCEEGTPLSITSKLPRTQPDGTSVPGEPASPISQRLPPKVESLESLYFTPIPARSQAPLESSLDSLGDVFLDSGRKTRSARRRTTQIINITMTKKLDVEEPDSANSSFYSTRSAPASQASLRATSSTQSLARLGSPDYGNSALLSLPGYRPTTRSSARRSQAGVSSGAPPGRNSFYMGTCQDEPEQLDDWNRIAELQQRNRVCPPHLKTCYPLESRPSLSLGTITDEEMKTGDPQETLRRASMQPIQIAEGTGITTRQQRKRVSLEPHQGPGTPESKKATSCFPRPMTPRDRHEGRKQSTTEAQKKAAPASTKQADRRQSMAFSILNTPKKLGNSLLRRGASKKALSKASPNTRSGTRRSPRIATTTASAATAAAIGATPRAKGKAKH
Sequence of Ku-70, P12956 (P12956 2-609): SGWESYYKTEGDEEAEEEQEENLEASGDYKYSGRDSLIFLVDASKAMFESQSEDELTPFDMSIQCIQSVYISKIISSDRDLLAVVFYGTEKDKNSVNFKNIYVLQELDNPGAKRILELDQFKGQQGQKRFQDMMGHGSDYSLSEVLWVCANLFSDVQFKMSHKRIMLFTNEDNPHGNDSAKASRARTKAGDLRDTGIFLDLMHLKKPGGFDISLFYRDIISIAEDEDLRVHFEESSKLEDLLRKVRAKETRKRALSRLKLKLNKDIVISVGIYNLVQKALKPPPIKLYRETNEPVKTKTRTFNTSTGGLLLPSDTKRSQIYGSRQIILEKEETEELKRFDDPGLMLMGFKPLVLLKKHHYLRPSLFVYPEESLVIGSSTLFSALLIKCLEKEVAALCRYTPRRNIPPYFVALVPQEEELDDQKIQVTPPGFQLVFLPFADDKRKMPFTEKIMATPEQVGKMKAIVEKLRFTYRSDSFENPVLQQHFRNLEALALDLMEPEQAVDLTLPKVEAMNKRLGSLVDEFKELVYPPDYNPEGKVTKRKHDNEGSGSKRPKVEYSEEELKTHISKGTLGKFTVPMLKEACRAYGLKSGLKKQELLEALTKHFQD
Sequence of U1-70 kDa, P08621 (P08621 whole entry): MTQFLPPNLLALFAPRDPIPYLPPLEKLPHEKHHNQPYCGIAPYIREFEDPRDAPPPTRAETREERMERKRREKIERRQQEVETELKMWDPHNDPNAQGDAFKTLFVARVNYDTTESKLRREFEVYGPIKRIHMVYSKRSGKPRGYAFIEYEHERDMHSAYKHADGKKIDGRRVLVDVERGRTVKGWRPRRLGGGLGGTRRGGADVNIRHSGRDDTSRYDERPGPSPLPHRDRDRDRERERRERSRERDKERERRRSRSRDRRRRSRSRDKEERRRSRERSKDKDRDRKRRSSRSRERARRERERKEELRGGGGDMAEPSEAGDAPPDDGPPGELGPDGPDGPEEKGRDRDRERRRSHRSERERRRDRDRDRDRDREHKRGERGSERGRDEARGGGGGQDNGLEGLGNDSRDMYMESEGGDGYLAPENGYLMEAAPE

B1: caspase-8 (protein)
chain 1: SESQTLDKVYQMKSKPRGYCLIINNHNFAKAREKVPKLHSIRDRNGTHLDAGALTTTFEELHFEIKPHDDCTVEQIYEILKIYQLMDHSNMDCFICCILSHGDKGIIYGTDGQEAPIYELTSQFTGLKCPSLAGKPKVFFIQACQGDNYQKGIPVETD
chain 2: LSSPQTRYIPDEADFLLGMATVNNCVSYRNPAEGTWYIQSLCQSLRERCPRGDDILTILTEVNYEVSNKDDKKNMGKQMPQPTFTLRKKLVFPSD
As for B1, the “cleavage in iodoacetamide-treated HeLa lysate with 50 nM caspase-8” value in [1], in series [3], in [4], in series [5], in [6] and in series [8] was “No cleavage” in each case. The “cleavage in iodoacetamide-treated HeLa lysate with 50 nM caspase-8” value in series [9], in series [10] and in [11] was “No cleavage” in each case. Further, the “cleavage of radiolabelled IvTT protein” value in series [2] and in [7] was “also not cleaved by purified caspase-8” each time.

B2: caspase-3 (protein)
chain: SGISLDNSYKMDYPEMGLCIIINNKNFHKSTGMTSRSGTDVDAANLRETFRNLKYEVRNKNDLTREEIVELMRDVSKEDHSKRSSFVCVLLSHGEEGIIFGTNGPVDLKKITNFFRGDRCRSLTGKPKLFIIQACRGTELDCGIETDSGVDDDMACHKIPVEADFLYAYSTAPGYYSWRNSKDGSWFIQSLCAMLKQYADKLEFMHILTRVNRKVATEFESFSFDATFHAKKQIPCIVSMLTKELYFYH
For B2, the “generation of caspase-3 substrate fragments in HeLa lysate, immunoblotting” value in series [12] is “entirely abolished by 100 nM Ac-DEVD-CHO”. In addition, the catalytic efficiency (kcat/Km) in series [6] amounted to 500000 M⁻¹ s⁻¹; in series [8], 5e+06 M⁻¹ s⁻¹.
